Results as given in the supplement of paper PMC10567573.

B1: GALNT9 (parent)
chain: FTQSGPIVSRATGRCLEVEMSKDA
B2: RIT1 (parent)
chain: FHALVREIRRKEKEAVLAMEKKSK

Variants of: B1
Experiment: protein stability index of a GFP-peptide fusion (GPS, HEK-293T) (PSI 1-6); higher = more stable
Settings: c terminus: a fixed tail appended
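Further: lentivirally expressed fusions sorted by FACS into six bins by GFP to DsRed ratio, PSI derived from sequencing read proportions per bin multiplied by bin number.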

Protein stability index, by site and new letter:
F1: W 2.3; N 3.15; G 3.15; L 2; D 3.51; K 3.17; H 2.93; M 1.74; E 4.08; I 2; C 3.31; P 1.87; Q 2.98

Variants of: B2
Experiment: as above
Settings: c terminus: a fixed tail appended

Protein stability index: each site, then its substitutions
V16: P 2.62; E 2.59; K 1.81; N 1.42; M 1.66; Y 1.95; F 2.45; D 1.3; Q 2.22; H 2.47; R 2.69; A 2.26; G 1.7; T 1.57; W 2.27; I 1.36
V5: Y 1.82; I 2.56; D 2.85; H 1.97; F 1.97; E 2.65; P 1.73; A 1.46; L 2.01; K 1.84; N 1.8; R 2.27; W 1.77; T 1.98; C 2.08; M 2.54; Q 2.19; S 1.43
E7: I 2.24; W 1.59; M 2.82; P 2.58; R 1.87; Y 2.04; Q 1.32; V 3.23; S 2.44; D 1.8
R10: Q 1.36; S 1.59; W 1.75; I 2.61; T 2.09; F 4.17; D 1.94; N 2.34; K 1.33; Y 1.82; P 2.31; E 1.7; C 2.7; A 3.88; M 2.19
I8: L 1.65; N 2.77; R 2.32; V 1.78; H 2.14; S 3.08; T 1.87; P 2.28; Y 2.01; A 2.93; M 2.32; C 2.25; K 2.31
R6: P 1.81; W 1.81; F 2.74; N 2.47; K 1.43; Q 1.84; M 1.81; H 1.42; G 1.76; T 3.19; D 1.26; V 1.75; Y 1.73; L 1.55
K11: G 2; I 1.55; C 2.28; N 1.45; D 1.39; L 2.16; W 2.11; T 2.19; F 1.95; H 2.05; P 2.46; V 1.99; R 1.55
E12: I 3.76; V 2.48; S 3; H 2.05; D 2.13; Q 1.89; C 1.81; G 2.28; F 1.64; K 2.03; L 1.81; N 2.45
E20: V 2.52; Y 2.35; W 2.98; M 2.08; T 1.92; H 2.12; A 2.07; C 1.52; Q 1.65; L 1.61; K 2.08; D 2.17; R 2.59; F 2.18; N 1.88
L17: G 1.7; M 1.86; D 1.51; K 1.97; E 2.09; P 1.77; R 1.9; H 2.11; F 2.12; W 1.7
F1: D 4.03; N 4.67; Q 4.72; M 3.69; E 5.2; A 3.95; Y 1.92; G 4.36; L 2.86; R 4.48; S 4.14; I 2.93; V 3.04
K22: H 1.57; A 2.4; V 1.55; Q 1.67; N 2.29; E 1.87; Y 1.49; I 1.71; L 1.97
A18: R 2.11; I 1.69; H 2.85; D 1.96; V 1.84; P 1.23; E 1.22; S 2.26; Q 1.95; L 1.66; F 2.15; W 1.68; C 1.89; N 3.42; K 2.5; T 1.91; Y 1.18; G 1.71
M19: T 1.78; V 1.79; E 1.88; W 1.53; L 3.14; D 2.04; K 2.17; S 1.79; A 1.68; Q 1.44; G 2.23; Y 1.76
K13: S 2.42; G 1.37; Y 1.81; Q 2.58; N 2.02; C 2.01; T 1.77; V 1.26; R 1.67; W 1.95; D 1.56; H 2.38; M 1.5
A3: I 2.12; C 2.07; S 1.42; N 1.87; H 1.41; G 2.15; D 2.19; P 1.45; K 2.04; R 2.05; T 2.28; E 1.48; Y 2.13; L 1.97
K24: G 2.4; D 1.83; A 1.91; S 1.38; Q 1.23; P 1.17; M 1.78; I 2.5; C 2.24; L 1.99; H 1.86; R 2.59; E 1.95; N 1.43; Y 1.86
S23: P 1.37; L 2.59; Y 2.83; A 1.64; M 1.82; T 1.67; H 1.67; C 2.27; G 1.68; F 2.09; K 2.31
K21: L 2.2; W 2.48; F 2.74; H 2.68; D 2.14; M 1.28; I 1.41; S 1.56; T 2.11; N 1.77; G 2.17; V 3.01
H2: Q 2.95; P 3.35; Y 2.72; M 2; G 2.83; T 2.55; L 2.61; R 3.02; E 3.37; W 3.04; A 2.64; C 2.57
R9: T 1.64; D 2.48; Y 2.09; G 2.27; V 2.42; W 2.02; E 2.06; S 1.85; H 1.54; Q 2.5; L 2.12; P 2.8; I 2
E14: P 1.73; R 1.84; D 1.41; V 1.9; N 1.62; T 1.93; A 2.29; Q 1.55; H 1.96; W 2.42; F 2.15; M 2.1; G 1.39; Y 2.17; S 1.8
L4: E 3.18; F 2.35; Y 2.66; Q 2.08; V 2.24; N 2.65; T 2.23; I 2.35; S 2.77; C 1.92; K 2.99; G 2.52; D 3.26; M 3.92
A15: R 1.72; S 2.52; E 1.58; Y 2.12; K 2.72; P 2.9; I 2.05; C 2.1; M 2.17; N 1.81; W 2.02; H 2.28; F 1.91; T 2.18
